From the supplement of paper PMC10724198
± gives the standard deviation of the averaged measurements.

Tested on: Saccharomyces cerevisiae
Assay: protein stability index of tFT-peptide fusion (C-terminal peptide) (PSI (0-1 scale)); higher = more stable (slower turnover)
Settings: genetic background: wild type; temperature: 30 C
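Also: PSI is a weighted mean of sequencing reads over stability bins, variants kept only with over 10 reads, mCherry proximal and sfGFP distal, peptide attached via GGGS linker.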

ILLSLSRWGMAG gave a protein stability index of 0.723 ± 0.024.

In the case of KKKNNKRKAKNK, the protein stability index is reported as 0.6918 ± 0.0012.

Sequence YQFAALRFTFPL has a protein stability index of 0.647 ± 0.044.

DLRDQDAQTTST showed a protein stability index of 0.692 ± 0.0088.

GLWCVGGGAVGV showed a protein stability index of 0.6818 ± 0.004.

ALVPPDPTPPPP showed a protein stability index of 0.699 ± 0.047.

In the case of MQQWSTKSPGVI, the protein stability index is reported as 0.651 ± 0.027.

SPPPPPPSYPAH showed a protein stability index of 0.772 ± 0.051.

RLFASNPALSNL showed a protein stability index of 0.709 ± 0.027.

Work on DPSMSNRDRRLP yielded a protein stability index of 0.708 ± 0.036.

Sequence GGGGVVRAWGLR has a protein stability index of 0.738 ± 0.043.

WCVEGRATGRGW showed a protein stability index of 0.674 ± 0.018.

Sequence TPKTRPRSRAVK has a protein stability index of 0.748 ± 0.015.

In the case of PSPHLHPPPLPP, the protein stability index is reported as 0.641 ± 0.0047.

KTLALSAQHPGS showed a protein stability index of 0.645 ± 0.012.

For RASPPPPPPPPP, the protein stability index was 0.658 ± 0.045.

For AVGGGGRLMCGV, the protein stability index was 0.645 ± 0.053.

Sequence QSQGTRLAPVTR has a protein stability index of 0.729 ± 0.068.

SPGPTLLSPPSP gave a protein stability index of 0.691 ± 0.017.

GWRVSQVLGGDR gave a protein stability index of 0.741 ± 0.042.

AVGFVVHNSLKK showed a protein stability index of 0.739 ± 0.017.

With RQIPAQAVKHVL the protein stability index was 0.588 ± 0.02.

IKRLNNEKSSKA gave a protein stability index of 0.676 ± 0.035.

With RAEGGDSGVAAL the protein stability index was 0.703 ± 0.011.

TEREAKKKKSKI gave a protein stability index of 0.704 ± 0.026.

For FSLLPFFRHIFL, the protein stability index was 0.637 ± 0.025.

With GGWGGRSGTEGE the protein stability index was 0.686 ± 0.013.

Sequence KKEKDKTINKQK has a protein stability index of 0.697 ± 0.067.

GPGGTVDLIWGS gave a protein stability index of 0.703 ± 0.034.

For FSPLTFLLSFPL, the protein stability index was 0.679 ± 0.019.

For TSVAYVWRLFTE, the protein stability index was 0.597 ± 0.016.

Sequence GLGVMGVGCVGS has a protein stability index of 0.653 ± 0.054.

PPPPPTRPPTRV was tested, and the protein stability index was 0.68 ± 0.079.

In the case of PAVGPDGTIRPL, the protein stability index is reported as 0.706 ± 0.037.

In the case of RAHSGSTCCGAQ, the protein stability index is reported as 0.698 ± 0.04.

With LCQWLIEFTVLF the protein stability index was 0.515 ± 0.025.

PPPASSPPPSAS showed a protein stability index of 0.626 ± 0.062.

In the case of ARGAPVSGRAGG, the protein stability index is reported as 0.6574 ± 0.005.

Work on YFCGRGSVLLVT yielded a protein stability index of 0.56 ± 0.014.

GKFTGPLGARSR was tested, and the protein stability index was 0.658 ± 0.032.

For YPPLPVRPLVLL, the protein stability index was 0.515 ± 0.0056.

RAFASLALAILP gave a protein stability index of 0.623 ± 0.038.

EGRGSVVGSSEG was tested, and the protein stability index was 0.633 ± 0.035.

KSIVAQGRLKPR gave a protein stability index of 0.685 ± 0.026.

In the case of VFNSFPLRLFGL, the protein stability index is reported as 0.693 ± 0.023.

With LFLSFFLPSYNT the protein stability index was 0.66 ± 0.026.

SAVARVGDVIAV was tested, and the protein stability index was 0.613 ± 0.059.

GGGGRGVGRGWG was tested, and the protein stability index was 0.675 ± 0.0046.

FISPLNFPARPS showed a protein stability index of 0.7181 ± 0.0015.

Sequence PPHPPPPAPLPS has a protein stability index of 0.73 ± 0.029.

GKVCGRAEYPQT gave a protein stability index of 0.719 ± 0.035.

With KIKNYNSGKIKK the protein stability index was 0.716 ± 0.024.

Sequence WAERESLNGLSA has a protein stability index of 0.718 ± 0.027.

For AHWYPAGQCSRL, the protein stability index was 0.804 ± 0.13.

In the case of SIPLYAKNSSLP, the protein stability index is reported as 0.722 ± 0.042.

LPTPVRRPPSPP gave a protein stability index of 0.71 ± 0.028.

SPEGYLLSPRCT showed a protein stability index of 0.737 ± 0.049.

In the case of RKNHPEKKKKPN, the protein stability index is reported as 0.673 ± 0.024.

In the case of GGGSGGEAVRVW, the protein stability index is reported as 0.645 ± 0.026.

Work on PPPCRSLPLLPP yielded a protein stability index of 0.6546 ± 0.005.

With SFSSHPPFAPSF the protein stability index was 0.745 ± 0.018.

Work on IEWGPITTLTQT yielded a protein stability index of 0.718 ± 0.02.

Sequence NAYRYFLNKQNR has a protein stability index of 0.697 ± 0.012.

WGGGGGGGPAGV showed a protein stability index of 0.6659 ± 0.0021.

KKINKEINKEKM was tested, and the protein stability index was 0.693 ± 0.022.

Work on GGRGWWRGTGSG yielded a protein stability index of 0.719 ± 0.056.

Sequence RVSTIEAEINLR has a protein stability index of 0.708 ± 0.012.

Sequence KHKRDRNIYKVT has a protein stability index of 0.679 ± 0.026.

CQYSRRRRQELH gave a protein stability index of 0.65 ± 0.075.

LPPLCLPPPAHP showed a protein stability index of 0.733 ± 0.026.

SPPPPTPPPPPA showed a protein stability index of 0.718 ± 0.045.

Sequence LLPSLLRPQPPA has a protein stability index of 0.699 ± 0.034.

Sequence CQWGGWGVGVGG has a protein stability index of 0.761 ± 0.061.

Sequence VLNSTSFLNKNL has a protein stability index of 0.712 ± 0.059.

With PLSDDPRRPLST the protein stability index was 0.688 ± 0.069.

With SDSREAVLTEEP the protein stability index was 0.625 ± 0.13.

With YDTGSRASWIAF the protein stability index was 0.714 ± 0.067.

Work on AHFQDSTSPATI yielded a protein stability index of 0.722 ± 0.017.

Work on LPPLTSPSIVRG yielded a protein stability index of 0.749 ± 0.04.

Sequence AYPRLRPSPSPH has a protein stability index of 0.7212 ± 0.0066.

Sequence SAPGIGFYTKSL has a protein stability index of 0.653 ± 0.064.

WEACLGRPEAGM gave a protein stability index of 0.724 ± 0.064.

SHPSALPPISAG gave a protein stability index of 0.734 ± 0.071.

Work on VKGVGNTAGRGV yielded a protein stability index of 0.659 ± 0.023.

GRKKKINDDKKN gave a protein stability index of 0.688 ± 0.071.

In the case of SGAGGGGWGGGV, the protein stability index is reported as 0.7535 ± 0.0062.

Sequence KKGKIKKFIIKK has a protein stability index of 0.694 ± 0.17.

For KKPHKTKGICYT, the protein stability index was 0.673 ± 0.012.

With GRSVSGYGSFID the protein stability index was 0.686 ± 0.017.

MIKAPGHKGTIN gave a protein stability index of 0.684 ± 0.02.

With GLDDLMPGRVLW the protein stability index was 0.666 ± 0.015.

With RLFSAWGCGLPL the protein stability index was 0.7 ± 0.019.

CLALLSYLGFTF gave a protein stability index of 0.675 ± 0.069.

Sequence WGYAFVGVVRGA has a protein stability index of 0.661 ± 0.046.

SFVFSVFGAGVD gave a protein stability index of 0.778 ± 0.014.

Work on GVTDRGIDCGIK yielded a protein stability index of 0.658 ± 0.023.

Sequence RCCGLWVDGFLL has a protein stability index of 0.743 ± 0.045.

TGKHDIAQEQTK was tested, and the protein stability index was 0.679 ± 0.028.

Sequence PPPLTPPPPPPR has a protein stability index of 0.725 ± 0.014.

In the case of GTPPRSGLPLCT, the protein stability index is reported as 0.711 ± 0.0099.

RVWQGRDGTVMK gave a protein stability index of 0.659 ± 0.019.
